{
  "source": "patent US20040254341A1",
  "about": "(published 2004)",
  "biological_target": "human Asp2 aspartyl protease (Hu-Asp2), purified enzyme used in the in vitro cleavage assays (human, UniProt P56817 46-456, limits assumed)",
  "sequence (P56817 46-456 Q214H limits assumed)": "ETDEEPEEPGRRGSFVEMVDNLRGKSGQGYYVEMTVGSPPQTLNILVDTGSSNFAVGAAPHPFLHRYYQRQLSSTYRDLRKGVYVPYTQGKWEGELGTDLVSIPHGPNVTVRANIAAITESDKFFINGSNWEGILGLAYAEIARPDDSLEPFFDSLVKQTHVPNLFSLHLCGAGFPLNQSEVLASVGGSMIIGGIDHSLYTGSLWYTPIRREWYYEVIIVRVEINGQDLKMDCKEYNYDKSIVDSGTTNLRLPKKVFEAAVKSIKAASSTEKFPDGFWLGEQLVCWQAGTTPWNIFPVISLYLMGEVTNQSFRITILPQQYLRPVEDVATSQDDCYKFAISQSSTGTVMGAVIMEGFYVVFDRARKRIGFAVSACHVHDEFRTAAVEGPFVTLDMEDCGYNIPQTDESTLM",
  "assay": "cell-based or functional assay",
  "note": "Non-standard residues stand in square brackets, D forms with d. No end group written: not given here. Nle = CCCC[C@H](N)C(=O)O",
  "data": [
    {"binder": "KTIN[Nle]DVDPS", "note": "[KTINnle-↓-DVDPS]", "values": [
      {"measurement": "activity against peptide #3 (SEQ ID NO:134)", "result": "~10", "unit": "fold reduction"}
    ]},
    {"binder": "KTITLEVEPS", "note": "[KTITL-↓-EVEPS]", "values": [
      {"measurement": "activity against wild type peptide", "result": 6, "unit": "fold"}
    ]},
    {"binder": "SEVSYEAEFR", "note": "[SEVSY-↓-EAEFR]", "values": [
      {"measurement": "activity against wild-type", "result": "~40", "unit": "fold"}
    ]},
    {"binder": "KTISLDVEPS", "note": "[KTISL-↓-DVEPS]", "values": [
      {"measurement": "activity against wild-type peptide", "result": "~35", "unit": "fold"}
    ]},
    {"binder": "SEVSYEVEFR", "note": "[SEVSY-↓-EVEFR]", "values": [
      {"measurement": "activity against wild type peptide", "result": "~70", "unit": "fold"}
    ]},
    {"binder": "SEVSYDAEFR", "note": "[SEVSY-↓-DAEFR]", "values": [
      {"measurement": "activity against wild-type", "result": "~9", "unit": "fold"}
    ]}
  ]
}
